Measured values reported in article PMC2913146 (Molecular cell, 2010).

Target: the molecule itself
Assay: crystal structure

B1: PoxA (enzyme)
chain: MSETATWQPSASIPNLLKRAAIMAEIRRFFADRGVLEVETPCMSQATVTDIHLFPFETRFVGPGHSQGINLYLMTSPEYHMKRLLAAGCGPVFQLCRSFRNEEMGRHHNPEFTMLEWYRPHYDMYRLMNEVDDLLQQVLDCQPAESLSYQQAFQRHLEIDPLSADKTQLREAAAKLDLSNIADTEEDRDTLLQLLFTMGVEPHIGKEKPTFIYHFPASQASLAQISTEDHRVAERFEVYYKGIELANGFHELTDAREQQQRFEQDNRKRAARGLPQQPIDQNLLDALAAGLPDCSGVALGVDRLVMLALGAESLADVIAFTVDRA
binding result: binds
